# How the values were obtained:
# [1] = Serum stability in mouse serum at 37° C.; type: in vitro ADME; conditions: for Serum τ1/2 (h) mouse: 37° C., mono-exponential fit; for stability (lability) compared to the native enzyme: murine serum
# Description: (§1) Serum stability measurements were done by mixing 0.5 μl dilute Luciferase with either 20 μl mouse serum or 50 μl rat serum (Equitech-Bio, Kerrville, Tex.) placing the sample in a 37° C. incubator, and removing aliquots for activity testing. To calculate serum half-lives, mono-exponential decay curves were fit to the serum stability data using a Nelder/Mead Simplex non-linear least squares minimization algorithm provided by the Octave numerical programming language. Emission spectra at ambient temperature were measured using a Triax 320 (Horiba Jobin Yvon, Edison, N.J.), which incorporates an optical grating device with a liquid N2 cooled CCD detector.
# [2] = Serum stability in rat serum at 37° C.; type: in vitro ADME; conditions: mono-exponential fit
# Description: as §1
# [3] = Luciferase activity of purified RLuc mutants (light output integrated over 10 s, luminometer); type: biochemical; conditions: for Activity (relative to RLuc) bc: benzyl-coelenterazine; for Activity (relative to RLuc) bc / Activity (relative to RLuc) bdc / Activity (relative to RLuc) cp / Activity (relative to RLuc) n / Activity (relative to RLuc) native: relative to native enzyme; for Activity (relative to RLuc) bdc: bisdeoxycoelenterazine; for Activity (relative to RLuc) cp: coelenterazine-cp; for Activity (relative to RLuc) n: coelenterazine-n; for improvement in light output (activity) compared to native RLuc / Activity (relative to RLuc) native: native coelenterazine
# Excerpt: Luminometer Calibration: Light measurements were made using a Turner 20/20 and later a Turner 20/20n luminometer (Turner Designs, Sunnyvale, Calif.). The luminometers were calibrated to absolute units (photons/s) using the luminol light standard performed in dimethyl sulfoxide (DMSO). No corrections were applied for the spectral sensitivity of the luminometer, as the spectral peak of luminol chemiluminescence in DMSO (486 nm) is close to the spectral peak of Renilla Luciferase bioluminescence (482 nm).
# Characterization of Renilla Luciferase Mutants: Luciferase activity was measured by adding 1 μl of sample (diluted as necessary in EB containing 1% HSA) to 100 μl room temperature 100 mM sodium phosphate buffer (pH 7), manually adding 1 μl of 0.5 μg/μl coelenterazine or analog, manually mixing, and reading for 10 s in a luminometer. The time between the addition of the luciferin and the start of measurement was approximately 4 s.
# [4] = Bioluminescence emission spectra; type: physicochemical; conditions: emission spectrum with native coelenterazine
# Description: as §1
Activity (relative to RLuc) bc [3],Activity (relative to RLuc) bdc [3],Activity (relative to RLuc) cp [3],Activity (relative to RLuc) n [3],improvement in light output (activity) compared to native RLuc [3],Activity (relative to RLuc) native [3],Molecule,Serum τ1/2 (h) mouse [1] [h],stability (lability) compared to the native enzyme [1],stability (lability) compared to the native enzyme ([1]; listed as double mutant),Serum τ1/2 (h) rat [2] [h],Wavelength (nm) mean [4] [nm],Wavelength (nm) peak [4] [nm]
2.7,20,14,7.1,5 fold,4.8,"M185V/Q235A: destabilized RLuc double mutant M185V/Q235A for use as a reporter gene (protein, Chemically synthesized Renilla Luciferase, destabilized RLuc double mutant M185V/Q235A for use as a reporter gene) MASKVYDPEQRKRMITGPQWWARCKQMNVLDSFINYYDSEKHAENAVIFLHGNAASSYLWRHVVPHIEPVARCIIPDLIGMGKSGKSGNGSYRLLDHYKYLTAWFELLNLPKKIIFVGHDWGACLAFHYSYEHQDKIKAIVHAESVVDVIESWDEWPDIEEDIALIKSEEGEKMVLENNFFVETVLPSKIMRKLEPEEFAAYLEPFKEKGEVRRPTLSWPREIPLVKGGKPDVVAIVRNYNAYLRASDDLPKMFIESDPGFFSNAIVEGAKKFPNTEFVKVKGLHFSQEDAPDEMGKYIKSFVERVLKNEQ",0.5,half the stability,twice the lability,0.2,–,–
0.15,0.22,0.11,0.38,–,0.21,A54P/A55T/C124A: RLuc mutant A54P/A55T/C124A (protein) MASKVYDPEQRKRMITGPQWWARCKQMNVLDSFINYYDSEKHAENAVIFLHGNPTSSYLWRHVVPHIEPVARCIIPDLIGMGKSGKSGNGSYRLLDHYKYLTAWFELLNLPKKIIFVGHDWGAALAFHYSYEHQDKIKAIVHAESVVDVIESWDEWPDIEEDIALIKSEEGEKMVLENNFFVETMLPSKIMRKLEPEEFAAYLEPFKEKGEVRRPTLSWPREIPLVKGGKPDVVQIVRNYNAYLRASDDLPKMFIESDPGFFSNAIVEGAKKFPNTEFVKVKGLHFSQEDAPDEMGKYIKSFVERVLKNEQ,119,–,–,129,483,470
0.78,0.98,0.74,0.66,–,0.94,E44G/C124A: RLuc mutant E44G/C124A (protein) MASKVYDPEQRKRMITGPQWWARCKQMNVLDSFINYYDSEKHAGNAVIFLHGNAASSYLWRHVVPHIEPVARCIIPDLIGMGKSGKSGNGSYRLLDHYKYLTAWFELLNLPKKIIFVGHDWGAALAFHYSYEHQDKIKAIVHAESVVDVIESWDEWPDIEEDIALIKSEEGEKMVLENNFFVETMLPSKIMRKLEPEEFAAYLEPFKEKGEVRRPTLSWPREIPLVKGGKPDVVQIVRNYNAYLRASDDLPKMFIESDPGFFSNAIVEGAKKFPNTEFVKVKGLHFSQEDAPDEMGKYIKSFVERVLKNEQ,2.6,–,–,3.3,502,486
0.10,0.19,0.06,0.15,–,0.12,A54G/A55G/C124A: RLuc mutant A54G/A55G/C124A (protein) MASKVYDPEQRKRMITGPQWWARCKQMNVLDSFINYYDSEKHAENAVIFLHGNGGSSYLWRHVVPHIEPVARCIIPDLIGMGKSGKSGNGSYRLLDHYKYLTAWFELLNLPKKIIFVGHDWGAALAFHYSYEHQDKIKAIVHAESVVDVIESWDEWPDIEEDIALIKSEEGEKMVLENNFFVETMLPSKIMRKLEPEEFAAYLEPFKEKGEVRRPTLSWPREIPLVKGGKPDVVQIVRNYNAYLRASDDLPKMFIESDPGFFSNAIVEGAKKFPNTEFVKVKGLHFSQEDAPDEMGKYIKSFVERVLKNEQ,2.4,–,–,3.0,492,476

# Further lines, the molecule ahead of its results:
Molecule,Activity (relative to RLuc) bc [3],Activity (relative to RLuc) bdc [3],Activity (relative to RLuc) cp [3],Activity (relative to RLuc) n [3],improvement in light output (activity) compared to native RLuc [3],Activity (relative to RLuc) native [3],Serum τ1/2 (h) mouse [1] [h],stability (lability) compared to the native enzyme [1],stability (lability) compared to the native enzyme ([1]; listed as double mutant),Serum τ1/2 (h) rat [2] [h],Wavelength (nm) mean [4] [nm],Wavelength (nm) peak [4] [nm]
C124A/F261L/F262L: RLuc mutant C124A/F261L/F262L (protein) MASKVYDPEQRKRMITGPQWWARCKQMNVLDSFINYYDSEKHAENAVIFLHGNAASSYLWRHVVPHIEPVARCIIPDLIGMGKSGKSGNGSYRLLDHYKYLTAWFELLNLPKKIIFVGHDWGAALAFHYSYEHQDKIKAIVHAESVVDVIESWDEWPDIEEDIALIKSEEGEKMVLENNFFVETMLPSKIMRKLEPEEFAAYLEPFKEKGEVRRPTLSWPREIPLVKGGKPDVVQIVRNYNAYLRASDDLPKMFIESDPGLLSNAIVEGAKKFPNTEFVKVKGLHFSQEDAPDEMGKYIKSFVERVLKNEQ,0.00,0.00,0.00,0.00,–,0.00,–,–,–,–,–,–
F33R/I34M/C124A: RLuc mutant F33R/I34M/C124A (protein) MASKVYDPEQRKRMITGPQWWARCKQMNVLDSRMNYYDSEKHAENAVIFLHGNAASSYLWRHVVPHIEPVARCIIPDLIGMGKSGKSGNGSYRLLDHYKYLTAWFELLNLPKKIIFVGHDWGAALAFHYSYEHQDKIKAIVHAESVVDVIESWDEWPDIEEDIALIKSEEGEKMVLENNFFVETMLPSKIMRKLEPEEFAAYLEPFKEKGEVRRPTLSWPREIPLVKGGKPDVVQIVRNYNAYLRASDDLPKMFIESDPGFFSNAIVEGAKKFPNTEFVKVKGLHFSQEDAPDEMGKYIKSFVERVLKNEQ,0.15,0.20,0.16,0.12,–,0.15,0.3,–,–,0.3,497,481
"M185V: destabilized RLuc single mutant M185V (without C124A) (protein, Chemically synthesized Renilla Luciferase) MASKVYDPEQRKRMITGPQWWARCKQMNVLDSFINYYDSEKHAENAVIFLHGNAASSYLWRHVVPHIEPVARCIIPDLIGMGKSGKSGNGSYRLLDHYKYLTAWFELLNLPKKIIFVGHDWGACLAFHYSYEHQDKIKAIVHAESVVDVIESWDEWPDIEEDIALIKSEEGEKMVLENNFFVETVLPSKIMRKLEPEEFAAYLEPFKEKGEVRRPTLSWPREIPLVKGGKPDVVQIVRNYNAYLRASDDLPKMFIESDPGFFSNAIVEGAKKFPNTEFVKVKGLHFSQEDAPDEMGKYIKSFVERVLKNEQ",2.6,20,12,4.1,about 4 fold,4.4,0.8,–,–,0.3,–,–
